The target in experiment [1] is T1, Keap1 (Kelch 1-6 domains, AA 314-611) (Homo sapiens (Human), UniProt Q14145 321-611).
T1 construct: Kelch domain expressed in E. coli with an N-terminal His tag and TEV site; the same preparation is described for SPR; also called Kelch-like ECH-associated protein 1; Kelch domain of Keap1
Nature of the experiment: SPR, captured Fab, Keap1 analyte.
Description: Surface plasmon resonance (SPR) experiments were carried out on a Biacore 3000 system (GE Healthcare) and detailed experimental details are given below. Briefly, supernatant containing expressed Fab (or sham transfected supernatant control) was injected over immobilized anti-human F(ab′)₂ polyclonal on a CM5 chip. A second injection of a Keap1 titration or a zero analyte control allowed association and dissociation kinetics to be monitored. Chip regeneration completed each sensorgram cycle. Sensorgrams were corrected for baseline drift, caused by slow dissociation of captured Fab, by subtraction of an adjacent zero analyte control cycle. […] Specificity of Fab binding to Keap1 was assessed by the same protocol by titration of an Nrf2 peptide analogue against a constant concentration of Keap1.
Surface plasmon resonance (SPR) experiments were carried out on a Biacore 3000 system (GE Healthcare) using reagents from the same manufacturer. […] Initial binding of Keap1 to expressed Fabs was assessed by injecting 50 μl supernatant, diluted 1 in 5 in running buffer, over the reference and anti-F(ab′)₂ flow cells at a flow rate of 10 μl/min, followed by a 150 μl injection of 0, 500 or 5000 nM Keap1 in running buffer at a flow rate of 30 μl/min.

Experiment [2] has as its target T1, Keap1 (Kelch 1-6 domains, AA 314-611). Nature of the experiment: Biacore competition assay (FIG. 33).
Description: (§1) Surface plasmon resonance (SPR) experiments were carried out on a Biacore 3000 system (GE Healthcare) using reagents from the same manufacturer. […] The latter was immobilised to the activated carboxymethyl dextran surface via amine coupling as follows: a fresh mixture of 50 mM N-hydroxysuccimide and 200 mM 1-ethyl-3-(3-dimethylaminopropyl)-carbodiimide was injected for 5 minutes at a flow rate of 10 μl/min, followed by 50 μg/ml anti-human F(ab′)₂ in 10 mM acetate pH 5.0 buffer for 5 min at the same flow rate. Finally the surface was deactivated with a 10 minute pulse of 1 M ethanolamine.HCl pH 8.5. […] Initial binding of Keap1 to expressed Fabs was assessed by injecting 50 μl supernatant, diluted 1 in 5 in running buffer, over the reference and anti-F(ab′)₂ flow cells at a flow rate of 10 μl/min, followed by a 150 μl injection of 0, 500 or 5000 nM Keap1 in running buffer at a flow rate of 30 μl/min. […] Association and dissociation kinetics of Keap1 binding to captured Fabs were determined by the same protocol over at least 8 values of the following concentrations: 75, 100, 150, 250, 350, 500, 750, 1000, 1500, 2500, 3500 and 5000 nM. Zero Keap1 controls were interspersed between the former cycles in order to correct for baseline drift and sham transfected supernatant was assessed at each Keap1 concentration in order to determine and correct for non-specific binding of Keap1.
Experiment [3] shares this target. Nature of the experiment: Biacore competition assay, % inhibition against [Ab] M, fitted with log concentration vs normalized response/variable slope; neither the sheet nor the text names the surface-bound partner.
Description: as §1
Experiment [4] has as its target T2, TGFβ1 (UniProt P01137 279-390). Nature of the experiment: cell-based or functional assay.
A further experiment addresses T3, TGFβ2 (UniProt P61812 303-414).
T3 sequence (looked up): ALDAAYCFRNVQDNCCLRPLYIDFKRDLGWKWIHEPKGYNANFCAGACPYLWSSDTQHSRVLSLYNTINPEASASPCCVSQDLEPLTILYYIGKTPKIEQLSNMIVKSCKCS
Nature of the experiment: cell-based or functional assay.

The target of experiment [5] is T4, TGFβ3 (UniProt P10600 301-412).
T4 sequence (looked up): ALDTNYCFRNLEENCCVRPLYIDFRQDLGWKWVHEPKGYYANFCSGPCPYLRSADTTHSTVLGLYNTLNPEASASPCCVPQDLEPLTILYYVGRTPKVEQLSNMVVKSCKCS
Nature of the experiment: cell-based or functional assay.

The target of experiment [6] is T2, TGFβ1. Nature of the experiment: SPR (Biacore), Fab immobilized on the chip.
Experiment [7] concerns the target T4, TGFβ3. Nature of the experiment: SPR (Biacore), Fab immobilized on the chip.
Experiment [8] concerns the target T2, TGFβ1. Description: SPR (Biacore).
Experiment [9] deals with T4, TGFβ3. Nature of the experiment: SPR (Biacore).

Where a chain is given by its changes, count along the chain named.

T2 sequence (P01137 279-390 limits assumed): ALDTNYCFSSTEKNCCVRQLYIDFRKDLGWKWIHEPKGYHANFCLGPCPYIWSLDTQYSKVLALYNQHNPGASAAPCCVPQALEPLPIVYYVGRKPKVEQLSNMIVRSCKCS
T1 sequence (Q14145 other isoform, or with tags, fused parts or gaps limits assumed): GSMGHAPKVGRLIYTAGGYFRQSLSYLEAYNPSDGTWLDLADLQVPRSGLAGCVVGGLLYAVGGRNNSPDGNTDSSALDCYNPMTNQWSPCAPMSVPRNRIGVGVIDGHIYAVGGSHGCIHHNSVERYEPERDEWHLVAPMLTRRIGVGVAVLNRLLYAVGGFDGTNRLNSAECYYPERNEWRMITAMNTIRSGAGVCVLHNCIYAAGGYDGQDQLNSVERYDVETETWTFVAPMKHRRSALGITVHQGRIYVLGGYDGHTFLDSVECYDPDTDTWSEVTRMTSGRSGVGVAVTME

B1: G56 Fab (Fab, V domains shown)
VH: EVQLVESGGGLIRPGGSLRLSCKGSGFIFENFGFGWVRQGPGKGLEWVSGTNWNGGDSRYGDSVKGRFTISRDNSNNFVYLQMNSLRPEDTAIYYCARGTDYTIDETGERAQGSGTFWYFDVWGRGTLVTVSS
VL: EIVLTQSPATLSVSPGERATLSCRASQNVHPRYFAWYQQKRGQSPRLLIHSGSTRAAGIADRFSGGGSGMHFTLTITRVEPEDFAVYFCQQYGGSPYTFGQGTRVELR
notes: Scaffold 3U4B
For B1, in experiment [1], the “Fraction of Fab binding sites occupied @ 500 nM Keap1” value is 0.023 fraction.

B2: G56.1 Fab (Fab, V domains shown)
VH: B1 VH with R59Q
VL: B1 VL with Q27R
notes: Scaffold 3U4B
For the molecule B2, in experiment [1], the “Fraction of Fab binding sites occupied @ 500 nM Keap1” value turned out to be 0.027 fraction.

B3: LS146-scFv (scFv)
scFv: EVQLVESGGGLVQPGGSLRLSCAASGFAISASSIHWVRQAPGKCLEWVASIDPETGETLYAKSVAGRFTISADTSKNTAYLQMNSLRAEDTAVYYCARAYAGDGVYYADVWGQGTLVTVSSGGGGSGGGGSGGGGSGGGGSDIQMTQSPSSLSASVGDRVTITCRASQSVSSAVAWYQQKPGKAPKLLIYSASSLYSGVPSRFSGSRSGTDFTLTISSLQPEDFATYYCQQSYSFPSTFGCGTKVEIKRTENLYFQ
notes: VH-(Gly4Ser)4-VL followed by a TEV site and His10 tag; also called LS146 formatted as a single chain Fv; scFv-LS146
Turning to B3, the “fold lower potency than its Fab form (LS146 Fab)” value in [2] amounted to 3 fold. This molecule also displayed an IC50 in experiment [3] of 79 nM.

B4: Fab184 (Fab, V domains shown)
VH: QVQLQQSGPELVRPGVSVKISCKGSGYTFIAEMLHWVKQSHAESLEWIGLIIPAVGITYYNQKFKDKATMTVDIASSTAYLELARLTSEDSAIYYCARSWAEGLFFDYWGQGTLVT
VL: DIVMTQTPKFLLVSAGDKVTITCKASQSVSNALTWYQQKPGQSPKLLIYYASNRYTGVPDRFTGSGYGTDFTFTISTVQAEDLAVYFCQQDYGAPPTFGGGTKVEIKR
notes: Fab; Scaffold 3MXW; also called designed Fab
On to B4, for which the “TGFβ1 IC50 in the reporter gene assay (n = 2)” value with TGFβ1 [4] was 52.8 nM. Further, the “TGFβ2 IC50 in the reporter gene assay (n = 2)” value with TGFβ2 came out at 36.8 nM. Further, the “TGFβ3 IC50 in the reporter gene assay (n = 2)” value with TGFβ3 [5] is 10.6 nM. Besides, the equilibrium dissociation constant (Kd) with TGFβ1 [6] was determined as 106 nM; with TGFβ3 [7] it was 32.9 nM.

B5: Fab design 186 (Fab, V domains shown)
VH: EVQLVQSGAEVKKPGESLKISCKGSGYSFTAYWISWVRQMPGKGLEWMGRIIPSVSITNYSPSFQGHVTISADKAISTAYLQWSSLKASDTAMYYCARLLMQGAMLTFDSWGQGTLVT
VL: DIQMTQSPSSLSASVGDRVTITCRASQSIGLALAWYQQKPGKAPKLLIYAASSLQSGVPSRFSGSGSGTDFTLTISSLQPEDFATYYCQQGNTLSYTFGQGTKVEIKR
notes: Fab; Scaffold 3NAC
Regarding B5, the binding result with TGFβ1 [8] and with TGFβ3 [9] was “no binding” throughout.

The values are drawn from patent publication US20200168293A1 (UCB, published 2020).
